Data reported in the supplement of paper PMC11246515.
± gives the standard deviation of the averaged measurements.

Assay: total protein half-life in vivo (active degradation + dilution); higher = more stable protein
[1] = E. coli NCM3722 delta-clpP delta-lon delta-hslV, growth: N-lim chemostat, doubling time 6 h
[2] = E. coli NCM3722 delta-clpP, growth: N-lim chemostat, doubling time 6 h
[3] = E. coli NCM3722 delta-hslV, growth: N-lim chemostat, doubling time 6 h
[4] = E. coli NCM3722 delta-lon, growth: N-lim chemostat, doubling time 6 h
[5] = E. coli NCM3722 delta-smpB, growth: N-lim chemostat, doubling time 6 h
[6] = wild type E. coli NCM3722, growth: C-lim chemostat, doubling time 3 h
[7] = wild type E. coli NCM3722, growth: C-lim chemostat, doubling time 6 h
[8] = wild type E. coli NCM3722, growth: C-lim chemostat, doubling time 12 h
[9] = wild type E. coli NCM3722, growth: N-lim chemostat, doubling time 6 h
[10] = wild type E. coli NCM3722, growth: P-lim chemostat, doubling time 6 h
[11] = wild type E. coli NCM3722, growth: P-lim chemostat, doubling time 12 h
[12] = wild type E. coli NCM3722, growth: N-lim chemostat, doubling time 12 h

| Sequence | total protein half-life in vivo [1] [h] | total protein half-life in vivo [2] [h] | total protein half-life in vivo [3] [h] | total protein half-life in vivo [4] [h] | total protein half-life in vivo [5] [h] | total protein half-life in vivo [6] [h] | total protein half-life in vivo [7] [h] | total protein half-life in vivo [8] [h] | total protein half-life in vivo [9] [h] | total protein half-life in vivo [10] [h] | total protein half-life in vivo [11] [h] | total protein half-life in vivo [12] [h] |
| --- | --- | --- | --- | --- | --- | --- | --- | --- | --- | --- | --- | --- |
| MNSRQQTILQMVIDQGQVSVTDLAKATGVSEVTIRQDLNTLEKLSYLRRAHGFAVSLDSDDVETRMMSNYTLKRELAEFAASLVQPGETIFIENGSSNALLARTLGEQKKNVTIITVSSYIAHLLKDAPCEVILLGGVYQKKSESMVGPLTRQCIQQVHFSKAFIGIDGWQPETGFTGRDMMRTDVVNAVLEKECEAIVLTDSSKFGAVHSYSIGPVERFNRVITDSKIRASDLMHLEHSKLTIHVVDI | 6.45 ± 1.4 | 6.46 ± 0.62 | 6.54 ± 0.67 | 6.01 ± 0.45 | 5.76 ± 0.27 | 2.87 ± 0.21 | 5.51 ± 0.27 | 11.6 ± 0.87 | 5.91 ± 0.31 | 5.57 ± 0.19 | 13.3 ± 0.69 | – |
| MNTARLNQGTPLLLNAVSKHYAENIVLNQLDLHIPAGQFVAVVGRSGGGKSTLLRLLAGLETPTAGDVLAGTTPLAEIQEDTRMMFQDARLLPWKSVIDNVGLGLKGQWRDAARRALAAVGLENRAGEWPAALSGGQKQRVALARALIHRPGLLLLDEPLGALDALTRLEMQDLIVSLWQEHGFTVLLVTHDVSEAVAMADRVLLIEEGKIGLDLTVDIPRPRRLGSVRLAELEAEVLQRVMQRGESETRLRKQG [P0AAI1] | 5.9 ± 0.12 | 1.1 | – | – | – | – | – | – | – | – | – | – |
| MNTFSVSRLALALAFGVTLTACSSTPPDQRPSDQTAPGTSSRPILSAKEAQNFDAQHYFASLTPGAAAWNPSPITLPAQPDFVVGPAGTQGVTHTTIQAAVDAAIIKRTNKRQYIAVMPGEYQGTVYVPAAPGGITLYGTGEKPIDVKIGLSLDGGMSPADWRHDVNPRGKYMPGKPAWYMYDSCQSKRSDSIGVLCSAVFWSQNNGLQLQNLTIENTLGDSVDAGNHPAVALRTDGDQVQINNVNILGRQNTFFVTNSGVQNRLETNRQPRTLVTNSYIEGDVDIVSGRGAVVFDNTEFRVVNSRTQQEAYVFAPATLSNIYYGFLAVNSRFNAFGDGVAQLGRSLDVDANTNGQVVIRDSAINEGFNTAKPWADAVISNRPFAGNTGSVDDNDEIQRNLNDTNYNRMWEYNNRGVGSKVVAEAKK | 5.8 ± 0.063 | 7.06 ± 1.3 | 6.54 ± 0.33 | 6.89 ± 0.2 | 5.993 ± 0.019 | 3.15 ± 0.05 | 6.27 ± 0.39 | 11.6 ± 0.95 | 6.28 ± 0.13 | 6.3 ± 0.14 | 13.7 ± 0.19 | 14.1 ± 0.59 |
| MNTIASVTLPHHVHAPRYDRQQLQSRIVHFGFGAFHRAHQALLTDRVLNAQGGDWGICEISLFSGDQLMSQLRAQNHLYTVLEKGADGNQVIIVGAVHECLNAKLDSLAAIIEKFCEPQVAIVSLTITEKGYCIDPATGALDTSNPRIIHDLQTPEEPHSAPGILVEALKRRRERGLTPFTVLSCDNIPDNGHVVKNAVLGMAEKRSPELAGWIKEHVSFPGTMVDRIVPAATDESLVEISQHLGVNDPCAISCEPFIQWVVEDNFVAGRPAWEVAGVQMVNDVLPWEEMKLRMLNGSHSFLAYLGYLSGFAHISDCMQDRAFRHAARTLMLDEQAPTLQIKDVDLTQYADKLIARFANPALKHKTWQIAMDGSQKLPQRMLAGIRIHQGRETDWSLLALGVAGWMRYVSGVDDAGNAIDVRDPLSDKIRELVAGSSSEQRVTALLSLREVFGDDLPDNPHFVQAIEQAWQQIVQFGAHQALLNTLKI | 5.54 ± 0.38 | – | – | – | – | 0.36 ± 0.057 | 0.863 | 0.917 | – | – | – | – |
| MNTIFSARIMKRLALTTALCTAFISAAHADDLNIKTMIPGVPQIDAESYILIDYNSGKVLAEQNADVRRDPASLTKMMTSYVIGQAMKAGKFKETDLVTIGNDAWATGNPVFKGSSLMFLKPGMQVPVSQLIRGINLQSGNDACVAMADFAAGSQDAFVGLMNSYVNALGLKNTHFQTVHGLDADGQYSSARDMALIGQALIRDVPNEYSIYKEKEFTFNGIRQLNRNGLLWDNSLNVDGIKTGHTDKAGYNLVASATEGQMRLISAVMGGRTFKGREAESKKLLTWGFRFFETVNPLKVGKEFASEPVWFGDSDRASLGVDKDVYLTIPRGRMKDLKASYVLNSSELHAPLQKNQVVGTINFQLDGKTIEQRPLVVLQEIPEGNFFGKIIDYIKLMFHHWFG [P0AEB2] | 6.19 ± 0.7 | 6.72 ± 0.74 | 6.22 ± 0.15 | 6.61 ± 0.36 | 6.03 ± 0.14 | 3.24 ± 0.07 | 6.05 ± 0.17 | 12 ± 2.8 | 6.23 ± 0.14 | 6.1 ± 0.093 | 13.2 ± 0.43 | 14.5 ± 2 |
